Experimental data from paper doi:10.1101/2020.10.01.322081.
Where “and” joins values, the source holds several entries; their conditions need not be identical. Equal entries are not always repeated. Where two headings read alike, the source gives them in different places.

Legend:
[1] = target: HIV-1 Gag polyprotein in the immature Gag lattice of purified virus particles (HIV-1); assay: cryo-EM structure
[2] = target: HIV-1 Gag polyprotein in the immature Gag lattice of purified virus particles (HIV-1); assay: cryo-EM structure; remark: listed apart in the source

## HIV-1 Gag polyprotein in the immature Gag lattice of purified virus particles (natural protein)
[1]
  stoichiometry N: 2
[2]
  stoichiometry N: 3 and 5
